Target: the molecule itself
Experiment: crystal structure; room-temperature crystals of DHP-B, space group P2(1)2(1)2(1); neutron, in-house X-ray, SFX, SSX and serial Laue data; two protomers (A, B) in the asymmetric unit

B1: dehaloperoxidase B (enzyme, Amphitrite ornata)
chain: MGFKQDIATLRGDLRTYAQDIFLAFLNKYPDEKRNFKNYVGKSDQELKSMAKFGDHTEKVFNLMMEVADRATDCVPLASDASTLVQMKQHSGLTTGNFEKLFVALVEYMRASGQSFDSQSWDRFGKNLVSALSSAGMK
notes: dehaloperoxidase B (DHP-B), heme-containing coelomic hemoglobin of the marine annelid Amphitrite ornata; 274 protein residues modelled for the two protomers of the asymmetric unit; Heme protein, ferric or oxyferrous; The crystal for NX and NX-Xray was perdeuterated (97% deuteration level); the other crystals were protiated; also called DHP-B; dehaloperoxidase isoenzyme B; source: E. coli …
binding result: binds
